Results on one substance are retold here after paper doi:10.1101/2020.07.27.221150.

Assay [1] addresses GNNQQNY, N-terminal hepta-peptide of yeast prion protein Sup35 (yeast).
The target is the same in assay [2]. The source holds these as a separate data set.

Where two headings read alike, the source gives them in different places.

For the substance “GNNQQNY, N-terminal hepta-peptide of yeast prion protein Sup35”, the size of the critical nucleus n* was 7.2 monomers in assay [1] and 6 monomers in assay [2].
